How the values were obtained:
FGFR1 = experiment: Flow cytometry surface staining of HAP1 WT cells with the isotype control, SSC against FITC
c-MET (Homo sapiens) = c-MET (Homo sapiens) (UniProt P08581); experiment: Flow cytometry surface staining of HAP1 WT cells with the isotype control, SSC against PE
[1] = target: T1, AAV2 particles (adeno-associated virus serotype 2 capsid) (adeno-associated virus serotype 2, UniProt P03135 1-735); experiment: cell-based or functional assay
[2] = target: T1, AAV2 particles (adeno-associated virus …); experiment: ELISA: plates coated with AAV2 virus-like particles, soluble AAVR (MBP-PKD1-5) detected with anti-MBP-HRP, A450
[3] = target: T1, AAV2 particles (adeno-associated virus …); experiment: SPR (BIAcore X): His-tagged soluble AAVR immobilised at 4 nM ligand concentration, AAV-2 particles as analyte, Langmuir 1:1 fit
[4] = target: T1, AAV2 particles (adeno-associated virus …); experiment: SPR (BIAcore X): His-tagged soluble AAVR immobilised at 2 nM ligand concentration, AAV-2 particles as analyte, Langmuir 1:1 fit
[5] = target: T1, AAV2 particles (adeno-associated virus …); experiment: SPR (BIAcore X), His-tagged soluble AAVR immobilised on CM5 chip, AAV-2 particles as analyte, Langmuir 1:1 fit

T1 sequence (P03135 whole entry): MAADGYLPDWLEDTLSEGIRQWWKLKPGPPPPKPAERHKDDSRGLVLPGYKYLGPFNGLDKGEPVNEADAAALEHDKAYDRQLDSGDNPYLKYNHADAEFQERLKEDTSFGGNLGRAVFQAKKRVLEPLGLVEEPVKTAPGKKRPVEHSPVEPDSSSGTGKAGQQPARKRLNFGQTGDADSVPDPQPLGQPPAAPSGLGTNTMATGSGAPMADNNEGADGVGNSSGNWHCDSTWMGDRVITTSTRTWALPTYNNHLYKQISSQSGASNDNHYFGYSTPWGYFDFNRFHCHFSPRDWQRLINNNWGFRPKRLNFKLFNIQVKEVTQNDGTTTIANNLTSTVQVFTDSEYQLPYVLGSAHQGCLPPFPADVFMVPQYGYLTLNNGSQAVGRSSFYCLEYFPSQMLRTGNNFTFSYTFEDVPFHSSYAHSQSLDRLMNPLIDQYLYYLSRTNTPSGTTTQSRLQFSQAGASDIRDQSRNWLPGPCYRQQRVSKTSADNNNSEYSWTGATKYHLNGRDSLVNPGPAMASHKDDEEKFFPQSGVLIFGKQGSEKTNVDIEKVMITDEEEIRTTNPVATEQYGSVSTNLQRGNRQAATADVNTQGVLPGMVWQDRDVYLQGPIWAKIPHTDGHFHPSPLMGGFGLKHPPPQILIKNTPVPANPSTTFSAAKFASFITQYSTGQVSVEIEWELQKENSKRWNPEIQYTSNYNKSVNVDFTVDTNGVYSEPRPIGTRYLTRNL

Molecule isotype (FITC row) (antibody) has a % of cells in the positive gate (FGFR1) of 0.28%.

isotype (PE row) (antibody) was tested, and the % of cells in the positive gate (c-MET (Homo sapiens)) was 0.68%.

B1: soluble AAVR (E. coli-expressed recombinant fusion between maltose-binding protein and AAVR PKD domains 1-5) (receptor)
chain: VSAGESVQITLPKNEVQLNAYVLQEPPKGETYTYDWQLITHPRDYSGEMEGKHSQILKLSKLTPGLYEFKVIVEGQNAHGEGYVNVTVKPEPRKNRPPIAIVSPQFQEISLPTTSTVIDGSQSTDDDKIVQYHWEELKGPLREEKISEDTAILKLSKLVPGNYTFSLTVVDSDGATNSTTANLTVNKAVDYPPVANAGPNQVITLPQNSITLFGNQSTDDHGITSYEWSLSPSSKGKVVEMQGVRTPTLQLSAMQEGDYTYQLTVTDTIGQQATAQVTVIVQPENNKPPQADAGPDKELTLPVDSTTLDGSKSSDDQKIISYLWEKTQGPDGVQLENANSSVATVTGLQVGTYVFTLTVKDERNLQSQSSVNVIVKEEINKPPIAKITGNVVITLPTSTAELDGSKSSDDKGIVSYLWTRDEGSPAAGEVLNHSDHHPILFLSNLVEGTYTFHLKVTDAKGESDTDRTTVEVKPDPR
notes: Used in the ELISA on AAV2 VLPs and in the neutralization assay; also called rAAVR1-5; MBP-AAVR PKD 1-5
B1 was tested, and the “IC50 (read off the curve)” value [1] was ~20 nM and the “EC50 (read off the curve)” value [2] was ~100 nM.

B2: His-tagged soluble AAVR (His-tagged MBP fusion with AAVR PKD domains 1-5) (receptor)
chain: VSAGESVQITLPKNEVQLNAYVLQEPPKGETYTYDWQLITHPRDYSGEMEGKHSQILKLSKLTPGLYEFKVIVEGQNAHGEGYVNVTVKPEPRKNRPPIAIVSPQFQEISLPTTSTVIDGSQSTDDDKIVQYHWEELKGPLREEKISEDTAILKLSKLVPGNYTFSLTVVDSDGATNSTTANLTVNKAVDYPPVANAGPNQVITLPQNSITLFGNQSTDDHGITSYEWSLSPSSKGKVVEMQGVRTPTLQLSAMQEGDYTYQLTVTDTIGQQATAQVTVIVQPENNKPPQADAGPDKELTLPVDSTTLDGSKSSDDQKIISYLWEKTQGPDGVQLENANSSVATVTGLQVGTYVFTLTVKDERNLQSQSSVNVIVKEEINKPPIAKITGNVVITLPTSTAELDGSKSSDDKGIVSYLWTRDEGSPAAGEVLNHSDHHPILFLSNLVEGTYTFHLKVTDAKGESDTDRTTVEVKPDPR
notes: Construct immobilised on the CM5 chip for SPR; also called AAVR (SPR ligand); not shown: His tag
Molecule B2 has a Kd [3] of 150 nM, a koff [3] of 0.0029 s⁻¹ and a kon [3] of 18000 M⁻¹ s⁻¹. It also gave a Kd [4] of 140 nM, a koff [4] of 0.0023 s⁻¹ and a kon [4] of 20000 M⁻¹ s⁻¹. The Kd [5] was ~150 nM.

Source: patent US20180327752A1 (Stanford University, published 2018)
